Measurements taken from IntAct's records for PubMed 16648845.

B1: Serine/threonine-protein kinase Nek2 (Homo sapiens), P51955 (parent)
chain: MPSRAEDYEVLYTIGTGSYGRCQKIRRKSDGKILVWKELDYGSMTEAEKQMLVSEVNLLRELKHPNIVRYYDRIIDRTNTTLYIVMEYCEGGDLASVITKGTKERQYLDEEFVLRVMTQLTLALKECHRRSDGGHTVLHRDLKPANVFLDGKQNVKLGDFGLARILNHDTSFAKTFVGTPYYMSPEQMNRMSYNEKSDIWSLGCLLYELCALMPPFTAFSQKELAGKIREGKFRRIPYRYSDELNEIITRMLNLKDYHRPSVEEILENPLIADLVADEQRRNLERRGRQLGEPEKSQDSSPVLSELKLKEIQLQERERALKAREERLEQKEQELCVRERLAEDKLARAENLLKNYSLLKERKFLSLASNPELLNLPSSVIKKKVHFSGESKENIMRSENSESQLTSKSKCKDLKKRLHAAQLRAQALSDIEKNYQLKSRQILGMR

Variants of: B1
Settings: with cdc27_human CDC27, P30260
Sequence of cdc27_human CDC27, P30260 (P30260 whole entry): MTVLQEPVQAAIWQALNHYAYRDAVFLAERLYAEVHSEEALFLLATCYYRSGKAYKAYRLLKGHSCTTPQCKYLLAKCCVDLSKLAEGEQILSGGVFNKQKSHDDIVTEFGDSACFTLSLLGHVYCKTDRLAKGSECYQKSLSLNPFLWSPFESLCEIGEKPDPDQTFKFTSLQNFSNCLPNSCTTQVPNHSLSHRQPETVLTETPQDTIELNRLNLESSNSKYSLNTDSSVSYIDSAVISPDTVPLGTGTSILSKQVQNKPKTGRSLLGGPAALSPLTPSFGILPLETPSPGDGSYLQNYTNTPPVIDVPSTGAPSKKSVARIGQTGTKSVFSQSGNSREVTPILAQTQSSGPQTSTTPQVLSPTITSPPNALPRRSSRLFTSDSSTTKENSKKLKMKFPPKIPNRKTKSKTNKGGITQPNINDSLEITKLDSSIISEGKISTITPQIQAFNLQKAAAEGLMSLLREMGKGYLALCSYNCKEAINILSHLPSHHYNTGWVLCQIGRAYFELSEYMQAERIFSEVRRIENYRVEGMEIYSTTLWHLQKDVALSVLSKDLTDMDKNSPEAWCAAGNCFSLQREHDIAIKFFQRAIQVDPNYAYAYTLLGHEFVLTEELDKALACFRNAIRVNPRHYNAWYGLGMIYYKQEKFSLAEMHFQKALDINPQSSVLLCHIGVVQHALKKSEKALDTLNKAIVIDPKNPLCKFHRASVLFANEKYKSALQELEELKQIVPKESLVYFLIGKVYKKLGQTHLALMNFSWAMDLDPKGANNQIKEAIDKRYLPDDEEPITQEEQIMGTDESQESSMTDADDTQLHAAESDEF

Variant | effect of a mutation on the interaction
MPSRAEDYEVLYTIGTGSYGRCQKIRRKSDGKILVWKELDYGSMTEAEKQMLVSEVNLLRELKHPNIVRYYDRIIDRTNTTLYIVMEYCEGGDLASVITKGTKERQYLDEEFVLRVMTQLTLALKECHRRSDGGHTVLHRDLKPANVFLDGKQNVKLGDFGLARILNHDTSFAKTFVGTPYYMSPEQMNRMSYNEKSDIWSLGCLLYELCALMPPFTAFSQKELAGKIREGKFRRIPYRYSDELNEIITRMLNLKDYHRPSVEEILENPLIADLVADEQRRNLERRGRQLGEPEKSQDSSPVLSELKLKEIQLQERERALKAREERLEQKEQELCVRERLAEDKLARAENLLKNYSLLKERKFLSLASNPELLNLPSSVIKKKVHFSGESAAAIMRSEASESQLTSKSKCKDLKKRLHAAQLRAQALSDIEKNYQLKSRQILGMR [K391A;E392A;N393A;N399A] | decreasing interaction
